This note sets out measurements from US20080044407A1.

In the experiment the target is HPV 16 E786-93 epitope […] (X aminobutyric acid) presented by HLA-A2.1 (human papilloma virus (HPV) 16; human).

“freshly isolated HLA-A2 positive CD8+ (CTLs) and CD4+ (HTLs) T cells (cells without a defined receptor)” showed an IFN γ Elispot, frequency of spots (250,000 cells per well) of 0.02%.
